Data taken from patent US9650414B1, “Dual-action EP4 agonist—bisphosphonate conjugates and uses thereof” (Simon Fraser University, priority 2014, dated 2017).

How the values were obtained:
human Cathepsin K = target: T1, human Cathepsin K (Homo sapiens, UniProt P43235); assay: Cathepsin K assay, hydrolysis of conjugates by human Cathepsin K; type: biochemical; conditions: conjugate 100 uM, CatK 0.2 uM, pH 5.5, 37 C
T1 construct: purchased Sigma-Aldrich; host or cells: E. coli
T1 sequence (P43235 115-329): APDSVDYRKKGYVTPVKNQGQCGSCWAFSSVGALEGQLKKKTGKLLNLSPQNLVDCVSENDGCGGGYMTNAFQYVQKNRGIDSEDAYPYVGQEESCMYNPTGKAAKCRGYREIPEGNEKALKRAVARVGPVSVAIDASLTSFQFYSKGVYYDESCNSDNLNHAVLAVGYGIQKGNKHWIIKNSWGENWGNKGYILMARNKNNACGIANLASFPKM
Experimental: (§1) Cathepsin K rat (recombinant, expressed in E. coli) was obtained from Merck as a gift. […] Enzyme activity was assayed using the Cathepsin K standard substrate Z-Leu-Arg-AMC. […] The appearances of released self-immolative linker 4-aminobenyl alcohol were recorded.

rat Cathepsin K = target: T2, rat Cathepsin K (Rattus norvegicus, UniProt O35186); assay: Cathepsin K assay, hydrolysis of conjugates by rat Cathepsin K; type: biochemical; conditions: conjugate 100 uM, CatK 0.2 uM, pH 5.5, 37 C
T2 construct: Merck (gift); host or cells: E. coli
T2 sequence (O35186 115-329): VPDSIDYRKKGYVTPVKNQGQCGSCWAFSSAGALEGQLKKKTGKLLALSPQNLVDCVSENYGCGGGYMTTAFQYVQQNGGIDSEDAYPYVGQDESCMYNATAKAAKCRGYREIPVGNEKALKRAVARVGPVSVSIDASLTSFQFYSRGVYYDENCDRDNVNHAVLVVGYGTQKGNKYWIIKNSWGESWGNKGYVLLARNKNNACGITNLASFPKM
Experimental: as §1

[1] = Analysis of the blood samples, level of tritiated 17a in blood; type: in vivo; conditions: rat, tail vein bolus, [3H]-17a
Experimental: (§2) Female Sprague Dawley rats (Charles River) were about 13 weeks old when received. They were acclimatized to the facility and operators, and were randomly divided to five groups: 6 hour, 1-, 7, 14 and -28 day. Dose: [^3H]-17a: 8.90 μCi/rat, [^14C]-17a 1.77 uCi/rat, and 17a 5.0 mg/kg. Formulation: conjugate 17a was suspended in Poloxamer 188 solution 10%, and adjusted to pH 8.0 by NaHCO3, then diluted by equal volume of PBS. The dosing was done with a fixed volume of 500 μL. The bolus injection and blood sampling were done via the tail vein. […] Long bones were harvested and counted.
Three Female Sprague Dawley rats (Charles River) were about 23 weeks old when received. They were acclimatized to the facility and operators. Dose: [^3H]-17a: 31.0 μCi/rat. Blood samples (0.5 mL per time point per rat) were taken from the 6-hour group of rats 0.5, 1, 2, 4, 6 hour and placed in heparinized micro-centrifuge tubes. Blood samples from the (500 μL) were centrifuged at ˜5000×G until plasma had separated. 100 μL of the supernatant was analyzed in a Harvey OX-300 biological oxidizer using the four-minute program. The collected scintillation mixture was counted on a Beckman Coulter LS-6500 scintillation counter. The counting time was two minute.

[2] = Rat organ distribution, uptake and release of conjugate 17a in rat bone; type: in vivo
Experimental: as §2
After 6 h, 1, 7, 14, 28 days three animals were weighed, sacrificed by CO2 and blood, fat, muscle, brain, heart, kidney, spleen, liver and bone were dissected and cleaned free of any loose tissue. The amount of radioactivity was determined by incineration in a R. J. Harvey OX300 Biological Oxidizer. The percent of the compound retained in the skeleton and the other organs at each time point was calculated by measuring activity per gram (μCi/g) in the collected samples and extrapolating to total activity retained in the skeleton and the other organs, the weight of skeleton was calculated by 8% of the body weight, the weight of the other organs was measured by balance. […] Table 3 and FIGS. 7A-E show rat organ distribution, uptake and release of a representative conjugate compound 17a.

## CC(C)C[C@H](NC(=O)OCc1ccccc1)C(=O)N[C@@H](CCCNC(=N)N)C(=O)Nc1ccc(COC(=O)NCCCC(O)(P(=O)(O)O)P(=O)(O)O)cc1 [Compound 7]
Human Cathepsin K; 1 hour
  hydrolysis by Hum CatK: 66%
Human Cathepsin K; 2 hour
  hydrolysis by Hum CatK: 75%
Human Cathepsin K; 3 hour
  hydrolysis by Hum CatK: 79 (3 hour) %
Rat Cathepsin K; 1 hour
  hydrolysis by Rat CatK: 73%
Rat Cathepsin K; 2 hour
  hydrolysis by Rat CatK: 80%
Rat Cathepsin K; 20 hour
  hydrolysis by Rat CatK: 95%

## N=C(N)NCCC[C@H](NC(=O)[C@@H]1CCCN1C(=O)CNC(=O)OCc1ccccc1)C(=O)Nc1ccc(COC(=O)NCCCC(O)(P(=O)(O)O)P(=O)(O)O)cc1 [Compound 8, (4-((((4-((S)-2-((S)-1-(((benzyloxy)carbonyl)glycyl)pyrrolidine-2-carboxamido)-5-guanidinopentanamido)benzyl)oxy)carbonyl)amino)-1-hydroxybutane-1,1-diyl)bis(phosphonic acid)]
Human Cathepsin K; 1 hour
  hydrolysis by Hum CatK: 91%
Human Cathepsin K; 2 hour
  hydrolysis by Hum CatK: 100%
Rat Cathepsin K; 1 hour
  hydrolysis by Rat CatK: 11%
Rat Cathepsin K; 2 hour
  hydrolysis by Rat CatK: 20%
Rat Cathepsin K; 20 hour
  hydrolysis by Rat CatK: 80%

## CCOC(=O)CCCCCCN1C(=O)CC[C@@H]1/C=C/[C@@H](OC(=O)Cc1ccc(COC(=O)N[C@@H](CC(C)C)C(=O)N[C@@H](CCCNC(=N)N)C(=O)Nc2ccc(COC(=O)NCCCC(O)(P(=O)(O)O)P(=O)(O)O)cc2)cc1)C(F)(F)c1ccccc1 [Compound 17a, (4-((((4-((S)-2-((S)-2-((((4-(2-(((R,E)-4-((R)-1-(7-ethoxy-7-oxoheptyl)-5-oxopyrrolidin-2-yl)-1,1-difluoro-1-phenylbut-3-en-2-yl)oxy)-2-oxoethyl)benzyl)oxy)carbonyl)amino)-4-methylpentanamido)-5-guanidinopentanamido)benzyl)oxy)carbonyl)amino)-1-hydroxybutane-1,1-diyl)bis(phosphonic acid)]
[1]
  clearance from circulating blood, t1/2: ~30 min
[2]; 17a 5.0 mg/kg, tail vein bolus
  behavior or reaction of dosed animals: no unusual behavior or reaction to the drug treatment
[2]; at 6 hours
  distribution of radio-activity: most radio-activity was observed in liver and bones
[2]; by 3H
  uptake: 2%
[2]; by 14C
  uptake: ~5%
[2]; by 7 days
  distribution of radio-activity: only bones had a significant amount of radio-activity
[2]; tail vein bolus, 3H, 1-day
  Percentage of dose in Bone: 2.12%
  Percentage of dose in Brain: 0.025%
  Percentage of dose in Heart: 0.021%
  Percentage of dose in Kidney: 0.11%
  Percentage of dose in Liver: 2.33%
  Percentage of dose in Spleen: 0.22%
[2]; tail vein bolus, 3H, 6-hour
  Percentage of dose in Bone: 2.10%
  Percentage of dose in Brain: 0.022%
  Percentage of dose in Heart: 0.025%
  Percentage of dose in Kidney: 0.21%
  Percentage of dose in Liver: 8.95%
  Percentage of dose in Spleen: 0.35%
[2]; tail vein bolus, 3H, 7-day
  Percentage of dose in Bone: 1.30%
  Percentage of dose in Brain: LOD
  Percentage of dose in Heart: 0.014%
  Percentage of dose in Kidney: 0.053%
  Percentage of dose in Liver: 0.48%
  Percentage of dose in Spleen: 0.076%
[2]; tail vein bolus, 3H, 14-day
  Percentage of dose in Bone: 0.80%
  Percentage of dose in Brain: LOD
  Percentage of dose in Heart: LOD
  Percentage of dose in Kidney: 0.026%
  Percentage of dose in Liver: 0.30%
  Percentage of dose in Spleen: 0.039%
[2]; tail vein bolus, 3H, 28-day
  Percentage of dose in Bone: 0.74%
  Percentage of dose in Brain: LOD
  Percentage of dose in Heart: LOD
  Percentage of dose in Kidney: 0.017%
  Percentage of dose in Liver: 0.08%
  Percentage of dose in Spleen: 0.037%
[2]; tail vein bolus, 14C, 1-day
  Percentage of dose in Bone: 4.63%
  Percentage of dose in Brain: 0.012%
  Percentage of dose in Heart: 0.009%
  Percentage of dose in Kidney: 0.047%
  Percentage of dose in Liver: 2.50%
  Percentage of dose in Spleen: 0.23%
[2]; tail vein bolus, 14C, 6-hour
  Percentage of dose in Bone: 5.52%
  Percentage of dose in Brain: 0.014%
  Percentage of dose in Heart: 0.017%
  Percentage of dose in Kidney: 0.11%
  Percentage of dose in Liver: 7.03%
  Percentage of dose in Spleen: 0.34%
[2]; tail vein bolus, 14C, 7-day
  Percentage of dose in Bone: 3.51%
  Percentage of dose in Brain: LOD
  Percentage of dose in Heart: LOD
  Percentage of dose in Kidney: 0.020%
  Percentage of dose in Liver: 0.61%
  Percentage of dose in Spleen: 0.086%
[2]; tail vein bolus, 14C, 14-day
  Percentage of dose in Bone: 2.52%
  Percentage of dose in Brain: LOD
  Percentage of dose in Heart: LOD
  Percentage of dose in Kidney: 0.013%
  Percentage of dose in Liver: 0.27%
  Percentage of dose in Spleen: 0.050%
[2]; tail vein bolus, 14C, 28-day
  Percentage of dose in Bone: 2.44%
  Percentage of dose in Brain: LOD
  Percentage of dose in Heart: LOD
  Percentage of dose in Kidney: 0.0092%
  Percentage of dose in Liver: 0.10%
  Percentage of dose in Spleen: 0.039%

## N=C(N)NCCC[C@H](NC(=O)[C@@H]1CCCN1C(=O)OCc1ccccc1)C(=O)Nc1ccc(COC(=O)NCCCC(O)(P(=O)(O)O)P(=O)(O)O)cc1 [Compound 6, (4-((((4-((S)-2-((S)-1-((benzyloxy)carbonyl)pyrrolidine-2-carboxamido)-5-guanidinopentanamido)benzyl)oxy)carbonyl)amino)-1-hydroxybutane-1,1-diyl)bis(phosphonic acid)]
Human Cathepsin K; 1 hour
  hydrolysis by Hum CatK: 90%
Human Cathepsin K; 2 hour
  hydrolysis by Hum CatK: 98%
Rat Cathepsin K; 1 hour
  hydrolysis by Rat CatK: 5%
Rat Cathepsin K; 2 hour
  hydrolysis by Rat CatK: 10%
Rat Cathepsin K; 20 hour
  hydrolysis by Rat CatK: 52%
